This passage reports heart to blood ratio of %ID/g (heart to blood ratio of %ID/g) results from publication PMC5700950.

The assay deals with C3d, the covalently bound activation product of complement C3, in mouse myocardium (mouse (endogenous in C57BL/6 heart)) (UniProt P01027). Nature of the assay: ex vivo organ biodistribution (gamma counting); organs removed after imaging, weighed and gamma counted; heart to blood ratio of injected dose per gram.
UniProt P01027, sequence (P01027 1002-1303): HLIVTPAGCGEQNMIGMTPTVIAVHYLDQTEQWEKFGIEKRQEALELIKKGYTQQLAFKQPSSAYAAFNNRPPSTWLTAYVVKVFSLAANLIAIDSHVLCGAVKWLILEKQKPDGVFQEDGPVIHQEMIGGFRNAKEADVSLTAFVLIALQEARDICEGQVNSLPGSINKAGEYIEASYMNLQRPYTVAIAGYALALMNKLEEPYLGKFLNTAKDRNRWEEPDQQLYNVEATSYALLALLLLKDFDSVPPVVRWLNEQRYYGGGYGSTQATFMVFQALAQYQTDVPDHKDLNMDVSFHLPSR

For the substance “99mTechnecium-labelled recombinant complement receptor 2 (SCR1 and SCR2 of human CR2) (domain or fragment)”, the heart to blood ratio of %ID/g (heart to blood ratio of %ID/g) is 1.17.
